Paper PMC10096250, “Combined action of albumin and heparin regulates lipoprotein lipase oligomerization, stability, and ligand interactions” (PLOS ONE, 2023)

B1: Full-length ANGPTL4 (natural protein)
chain: GPVQSKSPRFASWDEMNVLAHGLLQLGQGLREHAERTRSQLSALERRLSACGSACQGTEGSTDLPLAPESRVDPEVLHSLQTQLKAQNSRIQQLFHKVAQQQRHLEKQHLRIQHLQSQFGLLDHKHLDHEVAKPARRKRLPEMAQPVDPAHNVSRLHRLPRDCQELFQVGERQSGLFEIQPQGSPPFLVNCKMTSDGGWTVIQRRHDGSVDFNRPWEAYKAGFGDPHGEFWLGLEKVHSITGDRNSRLAVQLRDWDGNAELLQFSVHLGGEDTAYSLQLTAPVAGQLGATTVPPSGLSVPFSTWDQDHDLRRDKNCAKSLSGGWWFGTCSHSNLNGQYFRSIPQQRQKLKKGIFWKTWRGRYYPLQATTMLIQPMAAEAAS
B2: Recombinant N-terminal domain of ANGPTL4 (nANGPTL4^26-184) (domain or fragment, UniProt Q9BY76 26-184, looked up)
chain: GPVQSKSPRFASWDEMNVLAHGLLQLGQGLREHAERTRSQLSALERRLSACGSACQGTEGSTDLPLAPESRVDPEVLHSLQTQLKAQNSRIQQLFHKVAQQQRHLEKQHLRIQHLQSQFGLLDHKHLDHEVAKPARRKRLPEMAQPVDPAHNVSRLHRL
notes: angiopoietin-like protein 4 (ANGPTL4), N-terminal domain, residues 26-184
B3: Bovine lipoprotein lipase (enzyme, UniProt P11151 29-478, looked up)
chain: DRITGGKDFRDIESKFALRTPEDTAEDTCHLIPGVTESVANCHFNHSSKTFVVIHGWTVTGMYESWVPKLVAALYKREPDSNVIVVDWLSRAQQHYPVSAGYTKLVGQDVAKFMNWMADEFNYPLGNVHLLGYSLGAHAAGIAGSLTNKKVNRITGLDPAGPNFEYAEAPSRLSPDDADFVDVLHTFTRGSPGRSIGIQKPVGHVDIYPNGGTFQPGCNIGEALRVIAERGLGDVDQLVKCSHERSVHLFIDSLLNEENPSKAYRCNSKEAFEKGLCLSCRKNRCNNMGYEINKVRAKRSSKMYLKTRSQMPYKVFHYQVKIHFSGTESNTYTNQAFEISLYGTVAESENIPFTLPEVSTNKTYSFLLYTEVDIGELLMLKLKWISDSYFSWSNWWSSPGFDIGKIRVKAGETQKKVIFCSREKMSYLQKGKSPVIFVKCHDKSLNRKSG
notes: lipoprotein lipase (LPL), bovine, purified from bovine milk; In the RICS experiments 10 nM of the LPL carried ATTO610 (NHS ester labelling) and 190 nM was unlabelled; it says that most experiments were done with bovine LPL; also called bLPL; bovine LPL; source: purified from bovine milk

What was measured:
[1] = target: B3
[2] = target: B3; experiment: cell-based or functional assay
Human serum albumin = target: T1, Human serum albumin (human, UniProt P02768 25-609); experiment: SPR; nANGPTL4 immobilised; HSA at various concentrations flowed over; plateau values plotted against HSA concentration after subtracting non-specific binding; details: both partners purified
T1 construct: serum albumin, human; also called HSA

Bovine serum albumin [3] = target: T2, Bovine serum albumin (bovine, UniProt P02769 25-607); experiment: ITC; 752 μM BSA in the syringe titrated (38 injections) into 1.695 μM bLPL with 10 IU/ml heparin; 20 mM HEPES, 150 mM NaCl, pH 7.4; 25°C; apparent KD of the initial binding phase; details: both partners purified
T2 construct: serum albumin, bovine; also called BSA; source: bought: Sigma Aldrich (#A7906)

Bovine serum albumin [4] = target: T2, Bovine serum albumin; experiment: not stated; equilibrium dissociation constant of the LPL-albumin complex as given in the introduction; experiment not named

T2 sequence (P02769 25-607): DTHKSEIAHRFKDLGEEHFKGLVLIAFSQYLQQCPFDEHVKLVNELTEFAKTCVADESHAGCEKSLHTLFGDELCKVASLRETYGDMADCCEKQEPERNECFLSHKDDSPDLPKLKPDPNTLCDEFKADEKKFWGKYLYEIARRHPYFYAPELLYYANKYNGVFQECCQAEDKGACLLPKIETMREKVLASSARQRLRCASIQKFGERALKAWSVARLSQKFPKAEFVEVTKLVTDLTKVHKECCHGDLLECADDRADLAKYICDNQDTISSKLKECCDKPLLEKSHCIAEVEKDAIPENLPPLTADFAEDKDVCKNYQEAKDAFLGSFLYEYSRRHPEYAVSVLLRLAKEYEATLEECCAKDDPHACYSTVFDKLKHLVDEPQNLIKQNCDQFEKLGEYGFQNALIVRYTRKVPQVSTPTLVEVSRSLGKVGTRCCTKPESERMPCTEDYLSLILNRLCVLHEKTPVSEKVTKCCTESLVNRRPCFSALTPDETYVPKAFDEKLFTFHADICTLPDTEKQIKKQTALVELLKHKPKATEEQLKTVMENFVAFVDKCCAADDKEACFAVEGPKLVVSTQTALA
T1 sequence (P02768 25-609): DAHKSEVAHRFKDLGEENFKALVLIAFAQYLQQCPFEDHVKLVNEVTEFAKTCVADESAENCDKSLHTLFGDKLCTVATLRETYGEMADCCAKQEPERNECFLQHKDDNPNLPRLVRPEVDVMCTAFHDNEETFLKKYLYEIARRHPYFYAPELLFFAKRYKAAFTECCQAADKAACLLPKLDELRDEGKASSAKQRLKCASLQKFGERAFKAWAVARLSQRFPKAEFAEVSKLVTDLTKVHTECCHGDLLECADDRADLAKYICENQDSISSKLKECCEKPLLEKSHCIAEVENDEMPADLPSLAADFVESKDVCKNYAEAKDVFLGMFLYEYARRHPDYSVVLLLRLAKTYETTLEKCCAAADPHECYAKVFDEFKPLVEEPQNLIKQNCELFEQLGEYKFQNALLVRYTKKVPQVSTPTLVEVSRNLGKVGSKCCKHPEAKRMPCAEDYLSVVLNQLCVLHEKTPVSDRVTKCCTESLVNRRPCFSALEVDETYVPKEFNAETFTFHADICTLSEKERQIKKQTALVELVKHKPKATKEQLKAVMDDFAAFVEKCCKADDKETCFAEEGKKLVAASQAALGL

B1 was tested. Which residual LPL activity (ITC, human plasma) after 130 min of 200 nM LPL with 1 μM ANGPTL4 in the presence of both heparin and BSA [1] did it give?
The residual LPL activity (ITC, human plasma) after 130 min of 200 nM LPL with 1 μM ANGPTL4 in the presence of both heparin and BSA was 35%.

And the residual LPL activity (ITC, human plasma) after 130 min of 200 nM LPL with 1 μM ANGPTL4 in the presence of heparin or BSA alone [1]?
The residual LPL activity (ITC, human plasma) after 130 min of 200 nM LPL with 1 μM ANGPTL4 in the presence of heparin or BSA alone was 55%.

Which “inactivation rate constant (ki) of LPL by 100 nM nANGPTL4 during lipolysis of CM/VLDL (ITC), at 10 or 50 mg/ml BSA against 2 mg/ml BSA” value [2] does the source give for B2 here?
The value was about 1.6 fold.

And the Kd (Human serum albumin)?
Its Kd is 500 ± 51 µM.

With B3 as the binder, how does the Kd (Bovine serum albumin [3]) read?
Its Kd is 12.6 µM.

And the Kd (Bovine serum albumin [4])?
Its Kd is 30 to 70 µM.
